Results published in paper PMC8717395 (JACS Au, 2021).

What was measured:
[1] = target: NAD+-dependent formate dehydrogenase from Starkeya novella (Starkeya novella)
[2] = substrate: NC(=O)c1ccc[n+]([C@@H]2O[C@H](COP(=O)([O-])OP(=O)(O)OC[C@H]3O[C@@H](n4cnc5c(N)ncnc54)[C@H](O)[C@@H]3O)[C@@H](O)[C@H]2O)c1; test: purified protein; conditions: 20 mM formate, buffer B, 30 °C
[3] = substrate: O=CO; test: purified protein; conditions: 2.0 mM NAD+, buffer B, 30 °C
[4] = substrate: NC(=S)c1ccc[n+]([C@@H]2O[C@H](COP(=O)(O)OP(=O)(O)OC[C@H]3O[C@@H](n4cnc5c(N)ncnc54)[C@H](OP(=O)(O)O)[C@@H]3O)[C@@H](O)[C@H]2O)c1; test: purified protein; conditions: 15.0 mM NADH; buffer B; substrate inhibition term in fit
[5] = target: the molecule itself

With “NAD+-dependent formate dehydrogenase from Starkeya novella (enzyme)” the stoichiometry N [1] was 2.

B1: Fdh (Ancylobacter novellus DSM 506) (protein)
chain: MAKILCVLYDDPVDGYPKTYARDDLPKIDHYPGGQTLPTPKAIDFTPGALLGSVSGELGLRKYLEANGHTFVVTSDKDGPDSVFERELVDADVVISQPFWPAYLTPERIAKAKNLKLALTAGIGSDHVDLQSAIDRGITVAEVTYCNSISVAEHVVMMILGLVRNYIPSHDWARKGGWNIADCVEHSYDLEGMTVGSVAAGRIGLAVLRRLAPFDVKLHYTDRHRLPEAVEKELGLVWHDTREDMYPHCDVVTLNVPLHPETEHMINDETLKLFKRGAYIVNTARGKLADRDAIVRAIESGQLAGYAGDVWFPQPAPKDHPWRTMKWEGMTPHISGTSLSAQARYAAGTREILECFFEGRPIRDEYLIVQGGALAGTGAHSYSKGNATGGSEEAAKFKKAG
B1 gave a Km [2] of 110 µM, a kcat [2] of 1.08 s⁻¹ and a Km [3] of 2150 µM. For the same molecule, the kcat [3] was 0.87 s⁻¹.

B2: SthA (Escherichia coli K-12) (protein)
chain: PHSYDYDAIVIGSGPGGEGAAMGLVKQGARVAVIERYQNVGGGCTHWGTIPSKALRHAVSRIIEFNQNPLYSDHSRLLRSSFADILNHADNVINQQTRMRQGFYERNHCEILQGNARFVDEHTLALDCPDGSVETLTAEKFVIACGSRPYHPTDVDFTHPRIYDSDSILSMHHEPRHVLIYGAGVIGCEYASIFRGMDVKVDLINTRDRLLAFLDQEMSDSLSYHFWNSGVVIRHNEEYEKIEGCDDGVIMHLKSGKKLKADCLLYANGRTGNTDSLALQNIGLETDSRGQLKVNSMYQTAQPHVYAVGDVIGYPSLASAAYDQGRIAAQALVKGEATAHLIEDIPTGIYTIPEISSVGKTEQQLTAMKVPYEVGRAQFKHLARAQIVGMNVGTLKILFHRETKEILGIHCFGERAAEIIHIGQAIMEQKGGGNTIEYFVNTTFNYPTMAEAYRVAALNGLNRLF
Work on B2 yielded a Km [4] of 30 µM and a kcat [4] of 19.9 s⁻¹.

B3: soluble pyridine nucleotide transhydrogenase SthA from E. coli (enzyme, E. coli K-12, UniProt P27306 1-466, looked up)
chain: MPHSYDYDAIVIGSGPGGEGAAMGLVKQGARVAVIERYQNVGGGCTHWGTIPSKALRHAVSRIIEFNQNPLYSDHSRLLRSSFADILNHADNVINQQTRMRQGFYERNHCEILQGNARFVDEHTLALDCPDGSVETLTAEKFVIACGSRPYHPTDVDFTHPRIYDSDSILSMHHEPRHVLIYGAGVIGCEYASIFRGMDVKVDLINTRDRLLAFLDQEMSDSLSYHFWNSGVVIRHNEEYEKIEGCDDGVIMHLKSGKKLKADCLLYANGRTGNTDSLALQNIGLETDSRGQLKVNSMYQTAQPHVYAVGDVIGYPSLASAAYDQGRIAAQALVKGEATAHLIEDIPTGIYTIPEISSVGKTEQQLTAMKVPYEVGRAQFKHLARAQIVGMNVGTLKILFHRETKEILGIHCFGERAAEIIHIGQAIMEQKGGGNTIEYFVNTTFNYPTMAEAYRVAALNGLNRLF
For B3, the “stoichiometry N” value [5] was 8.
